Measurements: patent US10945940B2, “Method of preparing ultra-low molecular weight keratin peptide” (KYUNGPOOK NATIONAL UNIVERSITY INDUSTRY-ACADEMIC COOPERATION …, priority 2015, dated 2021)

Test system: MMP-1 expression
Test: Inhibition of UVB-induced MMP-1 expression in human dermal fibroblasts (Western blot)
Format: cell-based
Conditions: 10 μM, 20 mJ/cm^2 UVB
Method: Then, ultraviolet ray B was irradiated with 20 mJ/cm^2 using Vilber Lourmat (BioLink Crosslinker, France), cultured for 24 hours, and then cell proteins were recovered. At this time, the medium was removed before ultraviolet irradiation, and then washed with phosphate buffered saline (PBS) solution to remove serum components in the medium and then irradiated with ultraviolet ray B. The cells were washed twice with PBS solution to recover the proteins, and then the cells adhered to the bottom were recovered using a lysis buffer and centrifuged at 14,000 rpm for 10 minutes. After each supernatant was recovered, the protein concentration of each cell supernatant was quantified according to the method of use with a protein assay kit (Bio-Rad, USA) using bovine serum albumin (BSA) as the reference material. About […] protein from each of the protein extracts was denatured and separated by 8% gel sodium dodecyl sulphate-polyacrylamide gel electrophoresis (SDS-PAGE) and transferred to a polyvinylidene fluoride (PVDF) membrane at 120 mA for 2 hours. […]

Substance	inhibition of MMP-1 expression compared to the group treated with the only UVB
GLGSR [2-2]	~35%
GPTPL [2-1]	about 24%

Biological target: T1, Matrix metalloproteinase-1 (MMP-1) enzyme (Homo sapiens, UniProt P03956)
T1 construct: purchased Enzo
T1 sequence (P03956 100-269 limits assumed): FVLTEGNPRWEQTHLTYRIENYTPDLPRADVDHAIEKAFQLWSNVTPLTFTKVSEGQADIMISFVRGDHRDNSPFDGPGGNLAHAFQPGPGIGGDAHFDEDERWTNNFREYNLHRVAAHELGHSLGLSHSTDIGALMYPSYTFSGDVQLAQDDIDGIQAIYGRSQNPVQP
Test: MMP-1 enzyme activity inhibition in vitro (MMP-1 Fluorometric Drug Discovery Kit)
Format: biochemical
Conditions: 10 μM
Method: MMP-1 Fluorometric Drug Discovery Kit manufactured by Enzo company was used to evaluate an ability to inhibit Matrix metalloproteinase-1 (MMP-1) enzyme activity in the peptide synthesized in Example 3. N-Isobutyl-N-(4-methoxyphenylsulfonyl) glycyl hydroxamic acid (NNGH) which is known to inhibit MMP-1 activity was used as a positive control group, and NNGH was treated at a concentration of 0.65 μM. […] The substrate was added to the reaction mixture, fluorescence thereof was measured at Ex/Em=540/590 nm, and the ability to inhibit MMP-1 activity was evaluated according to the following Equation 2. The results of the ability of inhibiting MMP-1 activity are illustrated in FIG. 5A. Ability to inhibit MMP-1activity(%)=Fluorescence intensity of sample-added group/Fluorescence intensity of non-treated group×100 [Equation 2]

Substance	inhibition of MMP-1 enzyme activity compared to the group treated with the only MMP-1 enzyme
FPQN [2n7-5]	inhibited the activity of MMP-1 enzyme
GFGGF [2n7-4]	inhibited the activity of MMP-1 enzyme
GLSGL [KP7-1]	inhibited the activity of MMP-1 enzyme
IQPSPV [KP7-2]	inhibited the activity of MMP-1 enzyme
PISS [2n7-2]	inhibited the activity of MMP-1 enzyme

Next, values leading:

inhibition of MMP-1 enzyme activity compared to the group treated with the only MMP-1 enzyme	Substance
inhibited the activity of MMP-1 enzyme	GLGSR [2-2]
inhibited the activity of MMP-1 enzyme	GPTPL [2-1]

Same assay, conditions: FIG. 5A

Substance	significant effect of inhibiting MMP-1 activity
GFGGF [2n7-4]	significant effect of inhibiting MMP-1 activity
GLGSR [2-2]	significant effect of inhibiting MMP-1 activity
GLSGL [KP7-1]	significant effect of inhibiting MMP-1 activity
GPTPL [2-1]	significant effect of inhibiting MMP-1 activity
IQPSPV [KP7-2]	significant effect of inhibiting MMP-1 activity
